Results from FireProtDB (doi:10.1021/bi00005a026).

B1: Subtilisin-chymotrypsin inhibitor-2A, P01053 (parent)
chain: MSSVEKKPEGVNTGAGDRHNLKTEWPELVGKSVEEAKKVILQDKPEAQIIVLPVGTIVTMEYRIDRVRLFVDKLDNIAQVPRVG

Variants of: B1
Settings: Hordeum vulgare, pH 6.3, Thermal, Fluorescence, phosphate 10 mM, reversible: yes, structure 2CI2, whole UniProt chain shown; for ddG of mutation (higher = less stable): 46.6 °C

| Variant | ddG of mutation (higher = less stable) | Tm | change of melting temperature, mutant - wild type (higher = more stable) | unfolding enthalpy (van 't Hoff) |
| --- | --- | --- | --- | --- |
| MSSVEKKPEGVNTGAGDRHNLKTEWPELVGKSVEEAKKVILQDKPEAQIAVLPVGTIVTMEYRIDRVRLFVDKLDNIAQVPRVG [I50A] | 2.12 kcal/mol |  |  |  |
| MSSVEKKPEGVNTGAGDRHNLKTEWPELVGKSVEEAKKVILQDKPEAQIVVLPVGTIVTMEYRIDRVRLFVDKLDNIAQVPRVG [I50V] | -0.08 kcal/mol | 48 °C | 1.4 °C | 50.9 kcal/mol |
| MSSVEKKPEGVNTGAGDRHNLKTEWPELVGKSVAAAKKVILQDKPEAQIIVLPVGTIVTMEYRIDRVRLFVDKLDNIAQVPRVG [E34A E35A] | 0.76 kcal/mol |  |  |  |
| MSSVEKKPEGVNTGAGDRHNLKTEWPELVGKSVEEAKKVILQDKPEAQVIVLPVGTIVTMEYRIDRVRLFVDKLDNIAQVPRVG [I49V] | 1.11 kcal/mol | 39.4 °C | -7.2 °C | 27.8 kcal/mol |
| MSSVEKKPEGVNTGAGDRHNLKTEWPELVGKAVEEAKKVILQDKPEAQIIVLPVGTIVTMEYRIDRVRLFVDKLDNIAQVPRVG [S32A] | 0.89 kcal/mol | 38.2 °C | -8.4 °C | 35.4 kcal/mol |
| MSSVEKKPEGVNTGAGDRHNLKTEWPELVGKSVEEAKKVILQDKPEAQIIVVPVGTIVTMEYRIDRVRLFVDKLDNIAQVPRVG [L52V] | 0.5 kcal/mol | 46.1 °C | -0.5 °C | 37.3 kcal/mol |
| MSSVEKKPEGVNTGAGDRHNLKTEWPELVGKSVEEAKKVILQDKPEAQIIVAPVGTIVTMEYRIDRVRLFVDKLDNIAQVPRVG [L52A] | 2.37 kcal/mol | 37.5 °C | -9.1 °C | 42.5 kcal/mol |
| MSSVEKKPEGVNTGAGDRHNLKTEWPELVGKSVEEAKKVILQDKPEAQIIVLPTGTIVTMEYRIDRVRLFVDKLDNIAQVPRVG [V54T] | 1.03 kcal/mol |  |  |  |
| MSSVEKKPEGVNTGAGDRHNLKTEWPELVGKSVEEAKKVILQDKPEAQIIVLPAGTIVTMEYRIDRVRLFVDKLDNIAQVPRVG [V54A] | 0.63 kcal/mol | 43.8 °C | -2.8 °C | 40.5 kcal/mol |
| MSSVEKKPEGVNTGAGDRHNLKAEWPELVGKSVEEAKKVILQDKPEAQIIVLPVGTIVTMEYRIDRVRLFVDKLDNIAQVPRVG [T23A] | 0.85 kcal/mol | 43.7 °C | -2.9 °C |  |
| MSSVEKKPEGVNTGAGDRHNLKTEWPELVGKSVEEAKGVILQDKPEAQIIVLPVGTIVTMEYRIDRVRLFVDKLDNIAQVPRVG [K38G] | 0.97 kcal/mol | 35.8 °C | -10.8 °C | 37.6 kcal/mol |
| MSSVEKKPEGVNTGAGDRHNLKTEWPELVGKSVEEAKAVILQDKPEAQIIVLPVGTIVTMEYRIDRVRLFVDKLDNIAQVPRVG [K38A] | -0.23 kcal/mol | 41.4 °C | -5.2 °C | 34.8 kcal/mol |
| MSSVEKKPEGVNTGAGDRHNLKTEWPEAVGKSVEEAKKVILQDKPEAQIIVLPVGTIVTMEYRIDRVRLFVDKLDNIAQVPRVG [L28A] | 2.68 kcal/mol | 24.1 °C | -22.5 °C | 34.6 kcal/mol |
| MSSVEKKPEGVNTGAGDRHNLKTEWPELVGKSVEEAKKVVLQDKPEAQIIVLPVGTIVTMEYRIDRVRLFVDKLDNIAQVPRVG [I40V] | 1.3 kcal/mol | 31.8 °C | -14.8 °C | 26.3 kcal/mol |
| MSSVEKKPEGVNTGAGDRHNLKTEWPELVGKSVEEAAKVILQDKPEAQIIVLPVGTIVTMEYRIDRVRLFVDKLDNIAQVPRVG [K37A] | 0.49 kcal/mol | 34 °C | -12.6 °C | 27.2 kcal/mol |
| MSSVEKKPEGVNTGAGDRHNLKTEWPELVGKSVEEAKKVILQDAPEAQIIVLPVGTIVTMEYRIDRVRLFVDKLDNIAQVPRVG [K44A] |  | 40.8 °C | -5.8 °C | 24.6 kcal/mol |
| MSSVEKKPEGVNTGAGDRHNLKTEWPELVGKSVEEAKKVILQDKPEAQIIVLPVGTIVTMEYRIDRVRLLVDKLDNIAQVPRVG [F70L] | 2.11 kcal/mol | 32.5 °C | -14.1 °C | 27.5 kcal/mol |
| MSSVEKKPEGVNTGAGDRHNLKTEWPELVGKAVAAAKKVILQDKPEAQIIVLPVGTIVTMEYRIDRVRLFVDKLDNIAQVPRVG [S32A E34A E35A] | 1.67 kcal/mol |  |  |  |
| MSSVEKKPEGVNTGAGDRHNLKTEWPELVGKSVNEAKKVILQDKPEAQIIVLPVGTIVTMEYRIDRVRLFVDKLDNIAQVPRVG [E34N] | 0.7 kcal/mol | 42.8 °C | -3.8 °C | 36.1 kcal/mol |
| MSSVEKKPEGVNTGAGDRHNLKTEWPELVGKSVEEAKKVILQDKPEAQIIVLPVGTIVTMEYRIDRVRLFVDKLDNVAQVPRVG [I77V] | -0.19 kcal/mol | 47.7 °C | 1.1 °C | 34.6 kcal/mol |
| MSSVEKKPEGVNTGAGDRHNLKTEWPELVGKSVEEAKKAILQDKPEAQIIVLPVGTIVTMEYRIDRVRLFVDKLDNIAQVPRVG [V39A] | 0.48 kcal/mol | 41.9 °C | -4.7 °C | 30 kcal/mol |
| MSSVEKKPEGVNTGAGDRHNLKTEWPELVGKSVEEAKKVILQDKPEAQIIVLPVGTIVTMEYRIDRVRLFADKLDNIAQVPRVG [V71A] | 1.95 kcal/mol | 29.8 °C | -16.8 °C | 33.5 kcal/mol |
